Results as given in PMC10204187, “The effects of nature‐inspired amino acid substitutions on structural and biochemical properties of the E. coli L‐asparaginase EcAIII” (Protein Science : A Publication of the Protein Society, 2023).

These molecules were tested on NC(=O)C[C@H](N)C(=O)O (assay: purified protein). Settings: 20 mM Tris-HCl pH 8.0, 20 °C, L-Asn 0-84 mM.
Type: biochemical, Escherichia coli

Row | Molecule | Km [mM] | kcat [s⁻¹]
1 | EcAIII (Escherichia coli K-12) (protein, untagged as described; EcAIII gene in pET11d, bacterial expression; precursor autoproteolytically matured to subunits alpha and beta from one gene, (alphabeta)2; purified by DEAE and SEC) chain 1: GKAVIAIHGGAGAISRAQMSLQQELRYIEALSAIVETGQKMLEAGESALDVVTEAVRLLEECPLFNAGIGAVFTRDETHELDACVMDGNTLKAGAVAGVSHLRNPVLAARLVMEQSPHVMMIGEGAENFAFARGMERVSPEIFSTSLRYEQLLAARKEGATVLDHSGAPLDEKQKMG chain 2: TVGAVALDLDGNLAAATSTGGMTNKLPGRVGDSPLVGAGCYANNASVAVSCTGTGEVFIRALAAYDIAALMDYGGLSLAEACERVVMEKLPALGGSGGLIAIDHEGNVALPFNTEGMYRAWGYAGDTPTTGIYREKGDTVATQ | 22 ± 3 | 501 ± 22.3
2 | EcAIII (Escherichia coli K-12; M200I) (protein, untagged as described; EcAIII gene in pET11d, bacterial expression; precursor autoproteolytically matured to subunits alpha and beta from one gene, (alphabeta)2; purified by DEAE and SEC) chain 1: GKAVIAIHGGAGAISRAQMSLQQELRYIEALSAIVETGQKMLEAGESALDVVTEAVRLLEECPLFNAGIGAVFTRDETHELDACVMDGNTLKAGAVAGVSHLRNPVLAARLVMEQSPHVMMIGEGAENFAFARGMERVSPEIFSTSLRYEQLLAARKEGATVLDHSGAPLDEKQKMG chain 2: TVGAVALDLDGNLAAATSTGGITNKLPGRVGDSPLVGAGCYANNASVAVSCTGTGEVFIRALAAYDIAALMDYGGLSLAEACERVVMEKLPALGGSGGLIAIDHEGNVALPFNTEGMYRAWGYAGDTPTTGIYREKGDTVATQ | 35 ± 4 | 632 ± 37.9
3 | EcAIII (Escherichia coli K-12; M200K) (protein, untagged as described; EcAIII gene in pET11d, bacterial expression; precursor autoproteolytically matured to subunits alpha and beta from one gene, (alphabeta)2; purified by DEAE and SEC) chain 1: GKAVIAIHGGAGAISRAQMSLQQELRYIEALSAIVETGQKMLEAGESALDVVTEAVRLLEECPLFNAGIGAVFTRDETHELDACVMDGNTLKAGAVAGVSHLRNPVLAARLVMEQSPHVMMIGEGAENFAFARGMERVSPEIFSTSLRYEQLLAARKEGATVLDHSGAPLDEKQKMG chain 2: TVGAVALDLDGNLAAATSTGGKTNKLPGRVGDSPLVGAGCYANNASVAVSCTGTGEVFIRALAAYDIAALMDYGGLSLAEACERVVMEKLPALGGSGGLIAIDHEGNVALPFNTEGMYRAWGYAGDTPTTGIYREKGDTVATQ | 40 ± 9 | 127 ± 11.9
4 | EcAIII (Escherichia coli K-12; M200L) (protein, untagged as described; EcAIII gene in pET11d, bacterial expression; precursor autoproteolytically matured to subunits alpha and beta from one gene, (alphabeta)2; purified by DEAE and SEC) chain 1: GKAVIAIHGGAGAISRAQMSLQQELRYIEALSAIVETGQKMLEAGESALDVVTEAVRLLEECPLFNAGIGAVFTRDETHELDACVMDGNTLKAGAVAGVSHLRNPVLAARLVMEQSPHVMMIGEGAENFAFARGMERVSPEIFSTSLRYEQLLAARKEGATVLDHSGAPLDEKQKMG chain 2: TVGAVALDLDGNLAAATSTGGLTNKLPGRVGDSPLVGAGCYANNASVAVSCTGTGEVFIRALAAYDIAALMDYGGLSLAEACERVVMEKLPALGGSGGLIAIDHEGNVALPFNTEGMYRAWGYAGDTPTTGIYREKGDTVATQ | 37 ± 5 | 195 ± 12.7
5 | EcAIII (Escherichia coli K-12; M200T) (protein, untagged as described; EcAIII gene in pET11d, bacterial expression; precursor autoproteolytically matured to subunits alpha and beta from one gene, (alphabeta)2; purified by DEAE and SEC) chain 1: GKAVIAIHGGAGAISRAQMSLQQELRYIEALSAIVETGQKMLEAGESALDVVTEAVRLLEECPLFNAGIGAVFTRDETHELDACVMDGNTLKAGAVAGVSHLRNPVLAARLVMEQSPHVMMIGEGAENFAFARGMERVSPEIFSTSLRYEQLLAARKEGATVLDHSGAPLDEKQKMG chain 2: TVGAVALDLDGNLAAATSTGGTTNKLPGRVGDSPLVGAGCYANNASVAVSCTGTGEVFIRALAAYDIAALMDYGGLSLAEACERVVMEKLPALGGSGGLIAIDHEGNVALPFNTEGMYRAWGYAGDTPTTGIYREKGDTVATQ | 64 ± 6 | 217 ± 10.6
6 | EcAIII (Escherichia coli K-12; M200W) (protein, untagged as described; EcAIII gene in pET11d, bacterial expression; precursor autoproteolytically matured to subunits alpha and beta from one gene, (alphabeta)2; purified by DEAE and SEC) chain 1: GKAVIAIHGGAGAISRAQMSLQQELRYIEALSAIVETGQKMLEAGESALDVVTEAVRLLEECPLFNAGIGAVFTRDETHELDACVMDGNTLKAGAVAGVSHLRNPVLAARLVMEQSPHVMMIGEGAENFAFARGMERVSPEIFSTSLRYEQLLAARKEGATVLDHSGAPLDEKQKMG chain 2: TVGAVALDLDGNLAAATSTGGWTNKLPGRVGDSPLVGAGCYANNASVAVSCTGTGEVFIRALAAYDIAALMDYGGLSLAEACERVVMEKLPALGGSGGLIAIDHEGNVALPFNTEGMYRAWGYAGDTPTTGIYREKGDTVATQ | 36 ± 10 | 290 ± 37.3

These molecules were tested against T1, EcAIII (Escherichia coli, UniProt P37595, M200L) (assay: X-ray crystal structure). Settings: covalent; beta-acyl-enzyme intermediate on Thr179, chain D.
T1 construct: gene iaaA; untagged as described; EcAIII gene in pET11d, bacterial expression; precursor autoproteolytically matured to subunits alpha and beta from one gene, (alphabeta)2; purified by DEAE and SEC
Type: binding

Row | Molecule | X-ray crystal structure
7 | NC(=O)C[C@H](N)C(=O)O [L-Asn] | in the structure of variant M200L in chain D, we identified an acyl‐enzyme intermediate

Each molecule was assayed against T2, EcAIII (Escherichia coli, UniProt P37595, M200T) (assay: X-ray crystal structure). Settings: M200T#m monoclinic, 1.84 Å; Gly added at 1:1 molar ratio; active site, two of four sites.
T2 construct: gene iaaA; untagged as described; EcAIII gene in pET11d, bacterial expression; precursor autoproteolytically matured to subunits alpha and beta from one gene, (alphabeta)2; purified by DEAE and SEC
Type: binding

Row | Molecule | X-ray crystal structure
8 | NCC(=O)O [Gly] | In the structure M200T#m, glycine molecules were found in two out of four active sites.
